How the values were obtained:
[1] = biological target: p22phox cytoplasmic domain (Homo sapiens) (UniProt P13498); details: cited from earlier work
[2] = biological target: mouse NOXO1 tandem SH3 domains (SH3AB) (mouse); experiment: ITC; MicroCal VP-ITC, 18°C; 150 mM NaCl, 1 mM DTT, 50 mM HEPES pH 7.4; typically 20–40 µM protein in the cell, 200–300 µM ligand injected; single-site binding model; averaged over three to five experiments
[3] = biological target: p67phox C-terminal SH3 (Homo sapiens) (UniProt P19878); details: cited from earlier work
p67phox C-terminal SH3 (Homo sapiens), sequence (P19878 457-516): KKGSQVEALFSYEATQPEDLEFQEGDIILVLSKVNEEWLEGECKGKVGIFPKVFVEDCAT

[4] = biological target: human NOXO1 SH3AB–E triple mutant (proline residues 323, 326 and 329 to alanine) (human); experiment: ITC; MicroCal VP-ITC, 18°C; 150 mM NaCl, 1 mM DTT, 50 mM HEPES pH 7.4; typically 20–40 µM protein in the cell, 200–300 µM ligand injected; single-site binding model; averaged over three to five experiments
[5] = biological target: human NOXO1 tandem SH3 domains (SH3AB) (human); experiment: as above
[6] = biological target: human NOXO1 SH3AB–E (tandem SH3 domains plus the C-terminal portion of NOXO1) (human); experiment: as above

p47phox tandem SH3, sequence (P14598 156-285): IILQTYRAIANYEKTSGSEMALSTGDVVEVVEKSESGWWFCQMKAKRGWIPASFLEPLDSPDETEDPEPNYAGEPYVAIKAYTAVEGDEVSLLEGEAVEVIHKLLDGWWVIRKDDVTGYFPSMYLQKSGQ
p47phox C-terminal proline-rich region, sequence (P14598 359-390): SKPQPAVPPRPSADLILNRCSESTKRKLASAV
p22phox cytoplasmic domain (Homo sapiens), sequence (P13498 132-195): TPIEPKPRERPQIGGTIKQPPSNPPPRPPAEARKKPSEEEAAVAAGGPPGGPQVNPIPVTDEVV

p47phox tandem SH3 (from UniProt P14598)
Kd [1]: 190 nM

mouse p22^phox cytoplasmic domain (p22^phoxC) (from UniProt Q61462 127-192) (domain or fragment)
Kd [2]: 68 nM | dH [2]: -12.9 kcal/mol

p47phox C-terminal proline-rich region (from UniProt P14598)
Kd [3]: 20 nM

human p22^phox cytoplasmic domain (p22^phoxC) (domain or fragment)
Kd [4]: 530 nM | dH [4]: -8.1 kcal/mol | Kd [5]: 150 nM | dH [5]: -16.8 kcal/mol | dH [6]: -3.2 kcal/mol

Reference: article PMC2864300, “Regulation of NOXO1 Activity through Reversible Interactions with p22^phox and NOXA1” (PLoS ONE, 2010)
